Our source for the Ki, inhibition of trypsin (1.35 mg/mL) activity on BAEE by increasing rSKTI: IC50, the amount of rSKTI when half trypsin activity was inhibited; activity completely inhibited and stoichiometry N values is publication PMC7320042.

The target in assay [1] is recombinant trypsin (UniProt P00761). Briefly: enzyme inhibition kinetics (Lineweaver-Burk); trypsin (1.35 mg/mL stock) activity on BAEE (0.01-0.075 mM) with and without SKTI or rSKTI (0.63 mg/mL stock); 25 °C, 67 mM phosphate buffer pH 7.6; KI from Vmax/V'max = 1 + [I]/KI.
UniProt P00761, sequence (P00761 whole entry): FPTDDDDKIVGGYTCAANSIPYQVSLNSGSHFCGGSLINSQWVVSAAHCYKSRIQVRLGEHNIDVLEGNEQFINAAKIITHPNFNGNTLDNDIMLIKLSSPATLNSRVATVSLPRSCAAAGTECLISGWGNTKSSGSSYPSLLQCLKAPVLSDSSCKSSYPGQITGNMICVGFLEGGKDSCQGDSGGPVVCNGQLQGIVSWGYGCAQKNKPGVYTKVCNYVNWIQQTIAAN
Assay [2] shares this target. The description is as above. This is another data set of the same source.
Assay [3] shares this target.
For assay [4] the target is unchanged. Kind of assay: enzyme inhibition titration; trypsin (1.35 mg/mL) inhibited by increasing contents of rSKTI; residual activity on BAEE, 67 mM phosphate buffer pH 7.6, 25 °C; ratio worked out from the concentrations of trypsin and rSKTI.

Read-outs that look alike come from different tables or passages of the source.

B1: recombinant soybean Kunitz trypsin inhibitor (natural protein)
chain: DFVLDNEGNPLENGGTYYILSDITAFGGIRAAPTGNERCPLTVVQSRNELDKGIGTIISSPYRIRFIAEGHPLSLKFDSFAVIMLCVGIPTEWSVVEDLPEGPAVKIGENKDAMDGWFRLERVSDDEFNNYKLVFCPQQAEDDKCGDIGISIDHDDGTRRLVVSKNKPLVVQFQKLDKESL
As a reminder, the Ki is a measure of affinity in units of concentration, obtained from inhibition or displacement. What is called stoichiometry N is a count of units in the complex or per binding partner. As to B1, the inhibition constant Ki with recombinant trypsin [1] is 2200 nM; with recombinant trypsin [2] it was 2290 nM. Moreover, the inhibition of trypsin (1.35 mg/mL) activity on BAEE by increasing rSKTI: IC50, the amount of rSKTI when half trypsin activity was inhibited; activity completely inhibited at 1.5 mg/mL rSKTI with recombinant trypsin [3] turned out to be 500 µg/mL. Besides, the stoichiometry N in the assay with recombinant trypsin [4] worked out at 1.

B2: natural soybean Kunitz trypsin inhibitor (natural protein)
chain: B1 chain
For B2, the Ki in the assay with recombinant trypsin [1] was determined as 1670 nM.
